The record followed here is ChEMBL document CHEMBL1275444, “Fitness trade-offs in blaTEM evolution” (2008).

Substrate in the series: CC1(C)S[C@@H]2[C@H](NC(=O)[C@H](N)c3ccccc3)C(=O)N2[C@H]1C(=O)O
The conditions noted are these: Escherichia coli.

Description: Ratio of Kcat to Km for Escherichia coli Beta-Lactamase TEM-1

B1: Beta-lactamase TEM-1 (Escherichia coli), Q4GY26 (protein)
chain: MSIQHFRVALIPFFAAFCLPVFAHPETLVKVKDAEDQLGARVGYIELDLNSGKILESFRPEERFPMMSTFKVLLCGAVLSRVDAGQEQLGRRIHYSQNDLVEYSPVTEKHLTDGMTVRELCSAAITMSDNTAANLLLTTIGGPKELTAFLHNMGDHVTRLDRWEPELNEAIPNDERDTTMPAAMATTLRKLLTGELLTLASRQQLIDWMEADKVAGPLLRSALPAGWFIADKSGAGERGSRGIIAALGPDGKPSRIVVIYTTGSQATMD
Regarding B1, the kcat/Km was 2.8 ×10⁷ /M/s.
